Data set [1] concerns the molecule itself. In words: SEC; oligomer state of USP25 point mutants (Supplementary Figures 6 and 11, not shown); by the methods all USP25 constructs were loaded on a Superdex 16 column in 100 mM NaCl, 20 mM Tris-HCl pH 8.0, 1 mM β-mercaptoethanol and run on native PAGE. A general note: In gel filtration, larger molecules generally elute earlier.
Data set [2] deals with the molecule itself. Nature of the data set: crystal structure; lysine-methylated USP25NCD tetramer fraction; space group I422, one molecule per asymmetric unit, tetramer from the crystal lattice; 3.28 Å.

Two proteins from article PMC6255862, “A quaternary tetramer assembly inhibits the deubiquitinating activity of USP25” (Nature Communications, 2018) can be followed below.

B1: USP25NCD L271W (enzyme, human, UniProt Q9UHP3 18-714, looked up)
chain: QTFLNQLREITGINDTQILQQALKDSNGNLELAVAFLTAKNAKTPQQEETTYYQTALPGNDRYISVGSQADTNVIDLTGDDKDDLQRAIALSLAESNRAFRETGITDEEQAISRVLEASIAENKACLKRTPTEVWRDSRNPYDRKRQDKAPVGLKNVGNTCWFSAVIQSLFNLLEFRRLVLNYKPPSNAQDLPRNQKEHRNLPFMRELRYLFALLVGTKRKYVDPSRAVEILKDAFKSNDSQQQDVSEFTHKLWDWLEDAFQMKAEEETDEEKPKNPMVELFYGRFLAVGVLEGKKFENTEMFGQYPLQVNGFKDLHECLEAAMIEGEIESLHSENSGKSGQEHWFTELPPVLTFELSRFEFNQALGRPEKIHNKLEFPQVLYLDRYMHRNREITRIKREEIKRLKDYLTVLQQRLERYLSYGSGPKRFPLVDVLQYALEFASSKPVCTSPVDDIDASSPPSGSIPSQTLPSTTEQQGALSSELPSTSPSSVAAISSRSVIHKPFTQSRIPPDLPMHPAPRHITEEELSVLESCLHRWRTEIENDTRDLQESISRIHRTIELMYSDKSMIQVPYRLHAVLVHEGQANAGHYWAYIFDHRESRWMKYNDIAVTKSSWEELVRDSFGGYRNASAYCLMYINDKAQFLIQEEFNKETGQPLVGIETLPPDLRDFVEEDNQRFEKELEEWDAQLAQKALQE
notes: The methods speak of 'USP25NCD point mutants'; not shown: Smt3, N-terminal, cleaved
A word on the stoichiometry N: it is the number of molecules, sites or subunits per partner or assembly. As to B1, the “stoichiometry N” value in data set [1] was 4.

B2: USP25NCD, lysine-methylated (tetramer fraction used for crystallization) (enzyme, human, UniProt Q9UHP3 18-714, looked up)
chain: QTFLNQLREITGINDTQILQQALKDSNGNLELAVAFLTAKNAKTPQQEETTYYQTALPGNDRYISVGSQADTNVIDLTGDDKDDLQRAIALSLAESNRAFRETGITDEEQAISRVLEASIAENKACLKRTPTEVWRDSRNPYDRKRQDKAPVGLKNVGNTCWFSAVIQSLFNLLEFRRLVLNYKPPSNAQDLPRNQKEHRNLPFMRELRYLFALLVGTKRKYVDPSRAVEILKDAFKSNDSQQQDVSEFTHKLLDWLEDAFQMKAEEETDEEKPKNPMVELFYGRFLAVGVLEGKKFENTEMFGQYPLQVNGFKDLHECLEAAMIEGEIESLHSENSGKSGQEHWFTELPPVLTFELSRFEFNQALGRPEKIHNKLEFPQVLYLDRYMHRNREITRIKREEIKRLKDYLTVLQQRLERYLSYGSGPKRFPLVDVLQYALEFASSKPVCTSPVDDIDASSPPSGSIPSQTLPSTTEQQGALSSELPSTSPSSVAAISSRSVIHKPFTQSRIPPDLPMHPAPRHITEEELSVLESCLHRWRTEIENDTRDLQESISRIHRTIELMYSDKSMIQVPYRLHAVLVHEGQANAGHYWAYIFDHRESRWMKYNDIAVTKSSWEELVRDSFGGYRNASAYCLMYINDKAQFLIQEEFNKETGQPLVGIETLPPDLRDFVEEDNQRFEKELEEWDAQLAQKALQE
modifications: lysines methylated (borane-dimethylamine complex and formaldehyde)
notes: USP25, human, residues 18-714 of the 1055-residue protein; Model holds Tyr159 to Ala708; NTD (18-158) and several loops (205-214, 256-260, 346-354, 471-515, 671-677) are not seen; also called USP25NCD tetramer; lysine methylated USP25NCD; not shown: Smt3, N-terminal, cleaved
Consider B2, for which, in data set [2], the “stoichiometry N” value was determined as 4.
